Each block holds one binder with its values, some of them ahead of it.
Key:
[1] = molecular target: T1, IGF-1R on A549 human lung adenocarcinoma cells or primary human ocular choroid fibroblasts (HOCF) (human, UniProt P08069 31-1367); assay: cell-based or functional assay
[2] = molecular target: T1, IGF-1R on A549 human lung …; assay: cell based binding assay on A549 cells; YTE only heavy chain (SEQ ID NO: 94)
[3] = molecular target: T1, IGF-1R on A549 human lung …; assay: cell based binding assay on A549 cells; C22S plus YTE heavy chain (SEQ ID NO: 95)
[4] = molecular target: T1, IGF-1R on A549 human lung …; assay: flow cytometry on A549 cells, binding dose response curve (MFI)
Method: (§1) Unbound antibody was removed by washing, and the cells were incubated with an Alexa Fluor 488™—goat anti-human antibody (fluorescently labeled antibody) and a cell impermeable dye to gate live cells. The median fluorescence intensity (MFI) of viable cells was measured by flow cytometry and the data were analyzed using FlowJo™ software. Dose curves were fitted using a non-linear regression model; log (agonist) vs response-variable slope (four parameters).

[5] = molecular target: T1, IGF-1R on A549 human lung …; assay: flow cytometry on HOCF cells, binding dose response curve (MFI)
Method: as §1

[6] = molecular target: IGF-1R (as used in the surface plasmon resonance assay of Example 7) (UniProt P08069 31-932, limits assumed); assay: SPR, pH 7.4
IGF-1R (as used in the surface plasmon resonance assay of Example 7), sequence (P08069 31-932 limits assumed): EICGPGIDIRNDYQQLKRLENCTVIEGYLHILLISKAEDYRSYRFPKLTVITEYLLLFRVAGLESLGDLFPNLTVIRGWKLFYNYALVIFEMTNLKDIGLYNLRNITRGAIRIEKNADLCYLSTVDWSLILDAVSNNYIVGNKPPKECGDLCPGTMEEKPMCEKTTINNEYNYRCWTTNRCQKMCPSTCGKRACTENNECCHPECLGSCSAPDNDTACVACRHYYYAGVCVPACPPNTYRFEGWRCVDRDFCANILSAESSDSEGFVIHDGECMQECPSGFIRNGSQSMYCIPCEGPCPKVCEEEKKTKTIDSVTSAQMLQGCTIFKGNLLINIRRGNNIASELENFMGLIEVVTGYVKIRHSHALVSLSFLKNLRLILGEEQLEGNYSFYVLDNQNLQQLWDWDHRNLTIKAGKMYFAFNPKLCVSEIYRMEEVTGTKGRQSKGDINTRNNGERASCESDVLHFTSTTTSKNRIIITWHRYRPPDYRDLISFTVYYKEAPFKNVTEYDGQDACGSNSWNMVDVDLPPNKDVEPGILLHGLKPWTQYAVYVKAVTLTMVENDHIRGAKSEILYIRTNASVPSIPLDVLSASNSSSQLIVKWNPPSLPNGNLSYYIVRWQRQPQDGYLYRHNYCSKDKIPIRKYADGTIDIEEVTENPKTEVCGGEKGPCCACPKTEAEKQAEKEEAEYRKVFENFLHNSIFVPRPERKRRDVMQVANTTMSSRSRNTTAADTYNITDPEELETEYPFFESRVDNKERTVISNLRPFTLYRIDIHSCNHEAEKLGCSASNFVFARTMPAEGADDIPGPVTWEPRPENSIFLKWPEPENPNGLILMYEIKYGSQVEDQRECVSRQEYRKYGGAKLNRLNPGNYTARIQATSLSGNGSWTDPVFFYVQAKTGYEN

T1 sequence (P08069 31-1367): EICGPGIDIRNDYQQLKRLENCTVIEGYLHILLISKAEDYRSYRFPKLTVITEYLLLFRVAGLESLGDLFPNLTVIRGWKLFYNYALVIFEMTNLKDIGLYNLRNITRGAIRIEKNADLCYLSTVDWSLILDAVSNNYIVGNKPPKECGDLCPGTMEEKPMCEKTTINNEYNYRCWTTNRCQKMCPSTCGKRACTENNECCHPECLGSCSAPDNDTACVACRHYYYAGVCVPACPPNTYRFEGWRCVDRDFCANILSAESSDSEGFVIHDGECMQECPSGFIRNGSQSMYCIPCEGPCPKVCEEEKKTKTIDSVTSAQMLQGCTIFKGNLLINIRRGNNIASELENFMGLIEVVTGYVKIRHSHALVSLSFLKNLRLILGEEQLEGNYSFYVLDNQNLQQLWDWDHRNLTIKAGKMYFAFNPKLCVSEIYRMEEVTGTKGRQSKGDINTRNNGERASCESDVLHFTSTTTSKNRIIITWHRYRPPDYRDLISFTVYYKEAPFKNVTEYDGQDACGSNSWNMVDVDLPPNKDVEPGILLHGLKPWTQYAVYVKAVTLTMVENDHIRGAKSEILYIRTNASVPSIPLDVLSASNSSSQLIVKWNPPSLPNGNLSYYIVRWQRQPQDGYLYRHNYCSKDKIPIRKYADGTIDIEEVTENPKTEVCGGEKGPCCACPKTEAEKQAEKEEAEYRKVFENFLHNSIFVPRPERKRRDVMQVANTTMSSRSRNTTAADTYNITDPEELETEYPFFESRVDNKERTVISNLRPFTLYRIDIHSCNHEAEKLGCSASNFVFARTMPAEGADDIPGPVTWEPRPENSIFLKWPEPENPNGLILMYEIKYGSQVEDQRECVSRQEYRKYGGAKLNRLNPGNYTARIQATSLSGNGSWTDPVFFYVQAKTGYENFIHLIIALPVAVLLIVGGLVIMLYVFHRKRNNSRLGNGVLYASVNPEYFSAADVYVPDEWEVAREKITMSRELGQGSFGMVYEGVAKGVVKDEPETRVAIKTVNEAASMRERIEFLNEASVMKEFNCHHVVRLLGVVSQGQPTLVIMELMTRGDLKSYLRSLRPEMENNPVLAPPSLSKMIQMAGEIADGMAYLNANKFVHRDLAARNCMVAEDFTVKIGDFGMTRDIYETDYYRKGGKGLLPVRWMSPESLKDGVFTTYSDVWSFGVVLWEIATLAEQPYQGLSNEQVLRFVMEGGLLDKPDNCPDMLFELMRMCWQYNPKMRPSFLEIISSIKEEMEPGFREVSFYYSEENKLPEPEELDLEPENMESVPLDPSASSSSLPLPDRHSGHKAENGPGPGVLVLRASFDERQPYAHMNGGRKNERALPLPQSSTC

B1: VRDN-1100 with the Fc YTE mutations in the heavy chain (antibody, human IgG1, kappa)
heavy: QVQLVQSGAEVVKPGASVKLSCKASGYTFTSYWMHWVKQRPGQGLEWIGEINPSNGRTNYNQKFQGKATLTVDKSSSTAYMQLSSLTSEDSAVYYFARGRPDYYGSSKWYFDVWGQGTTVTVSSASTKGPSVFPLAPSSKSTSGGTAALGCLVKDYFPEPVTVSWNSGALTSGVHTFPAVLQSSGLYSLSSVVTVPSSSLGTQTYICNVNHKPSNTKVDKKVEPKSCDKTHTCPPCPAPELLGGPSVFLFPPKPKDTLYITREPEVTCVVVDVSHEDPEVKFNWYVDGVEVHNAKTKPREEQYNSTYRVVSVLTVLHQDWLNGKEYKCKVSNKALPAPIEKTISKAKGQPREPQVYTLPPSRDELTKNQVSLTCLVKGFYPSDIAVEWESNGQPENNYKTTPPVLDSDGSFFLYSKLTVDKSRWQQGNVFSCSVMHEALHNHYTQKSLSLSPG
light: DVVMTQTPLSLPVSLGDPASISCRSSQSIVHSNVNTYLEWYLQKPGQSPRLLIYKVSNRFSGVPDRFSGSGAGTDFTLRISRVEAEDLGIYYCFQGSHVPPTFGGGTKLEIKRTVAAPSVFIFPPSDEQLKSGTASVVCLLNNFYPREAKVQWKVDNALQSGNSQESVTEQDSKDSTYSLSSTLTLSKADYEKHKVYACEVTHQGLSSPVTKSFNRGEC
notes: also called YTE Fc mutatant version of VRDN1100; YTE only mutant
IC50 of inhibition of IGF-1R autophosphorylation [1]: 0.4 nM
EC50 [2]: 0.3 nM

B3: VRDN-1100 (antibody, V domains shown)
VH: QVQLVQSGAEVVKPGASVKLSCKASGYTFTSYWMHWVKQRPGQGLEWIGEINPSNGRTNYNQKFQGKATLTVDKSSSTAYMQLSSLTSEDSAVYYFARGRPDYYGSSKWYFDVWGQGTTVTVSS
VL: DVVMTQTPLSLPVSLGDPASISCRSSQSIVHSNVNTYLEWYLQKPGQSPRLLIYKVSNRFSGVPDRFSGSGAGTDFTLRISRVEAEDLGIYYCFQGSHVPPTFGGGTKLEIKR
notes: Humanized monoclonal antibody to IGF-1R; also called VRDN-01100
EC50 [4]: 0.1 nM
IC50 of inhibition of IGF-1 stimulated receptor phosphorylation on A549 cells (pIGF-1R ELISA) [1]: 90 pM
IC50 of inhibition of IGF-1 stimulated receptor phosphorylation on HOCF cells (pIGF-1R ELISA) [1]: 90 pM
EC50 [5]: 0.4 nM

The next lines start with the values.

IC50 of inhibition of IGF-1R autophosphorylation [1]: 0.37 nM
EC50 [3]: 0.36 nM
B2: VRDN-1100 with C22S mutation and Fc YTE mutations in the heavy chain (antibody, human IgG1, kappa)
heavy: QVQLVQSGAEVVKPGASVKLSSKASGYTFTSYWMHWVKQRPGQGLEWIGEINPSNGRTNYNQKFQGKATLTVDKSSSTAYMQLSSLTSEDSAVYYFARGRPDYYGSSKWYFDVWGQGTTVTVSSASTKGPSVFPLAPSSKSTSGGTAALGCLVKDYFPEPVTVSWNSGALTSGVHTFPAVLQSSGLYSLSSVVTVPSSSLGTQTYICNVNHKPSNTKVDKKVEPKSCDKTHTCPPCPAPELLGGPSVFLFPPKPKDTLYITREPEVTCVVVDVSHEDPEVKFNWYVDGVEVHNAKTKPREEQYNSTYRVVSVLTVLHQDWLNGKEYKCKVSNKALPAPIEKTISKAKGQPREPQVYTLPPSRDELTKNQVSLTCLVKGFYPSDIAVEWESNGQPENNYKTTPPVLDSDGSFFLYSKLTVDKSRWQQGNVFSCSVMHEALHNHYTQKSLSLSPG
light: DVVMTQTPLSLPVSLGDPASISCRSSQSIVHSNVNTYLEWYLQKPGQSPRLLIYKVSNRFSGVPDRFSGSGAGTDFTLRISRVEAEDLGIYYCFQGSHVPPTFGGGTKLEIKRTVAAPSVFIFPPSDEQLKSGTASVVCLLNNFYPREAKVQWKVDNALQSGNSQESVTEQDSKDSTYSLSSTLTLSKADYEKHKVYACEVTHQGLSSPVTKSFNRGEC
notes: also called C22S and Fc YTE mutant; C22S plus YTE mutations

Kd [6]: 0.21 nM
koff [6]: 2.18e-05 s⁻¹
kon [6]: 104000 M⁻¹ s⁻¹
B4: mutant of VRDN-1100 with a C22S mutation in the heavy chain (antibody, V domains shown)
VH: QVQLVQSGAEVVKPGASVKLSSKASGYTFTSYWMHWVKQRPGQGLEWIGEINPSNGRTNYNQKFQGKATLTVDKSSSTAYMQLSSLTSEDSAVYYFARGRPDYYGSSKWYFDVWGQGTTVTVSS
VL: DVVMTQTPLSLPVSLGDPASISCRSSQSIVHSNVNTYLEWYLQKPGQSPRLLIYKVSNRFSGVPDRFSGSGAGTDFTLRISRVEAEDLGIYYCFQGSHVPPTFGGGTKLEIK

Source: patent US20250382374A1 (VIRIDIAN THERAPEUTICS, published 2025)
